How the values were obtained:
[1] = target: the molecule itself; assay: cryo-EM structure; native 100S ribosome dimers purified from S. aureus; 6.8 Å map of the 100S, 6.7 Å focused map of the dimer interface (C2 symmetry), 3.2 Å masked 30S map
[2] = target: the molecule itself; assay: SEC; Superdex-200 Increase 10/300 GL; 20 mM Tris pH 7.9, 20 mM MgCl2, 250 mM NH4Cl, 10 mM KCl; 0.5 ml/min; 50 µg of purified HPFSA protein; apparent molecular weights from a standard curve

Row | Protein | binding result [1] | binding result [2]
1 | S. aureus hibernating promoting factor (HPFSA), full length, in the native 100S ribosome (natural protein, UniProt Q2FIN9 1-190, looked up, hibernating promoting factor (HPF), Staphylococcus aureus JE2 (USA300), full-length hpf under its native promoter; residues 1-190; first 100 residues modelled, C-terminal domain fitted as a homology model; Two copies in the 100S dimer, one for each 70S; also called long HPF; N-HPFSA (N-terminal domain); source: S. aureus hpf-knockout strain (USA300, JE2) with plasmid pLI50hpf; isolated with the …) MIRFEIHGDNLTITDAIRNYIEEKIGKLERYFNDVPNAVAHVKVKTYSNSATKIEVTIPLKNVTLRAEERNDDLYAGIDLINNKLERQVRKYKTRINRKSRDRGDQEVFVAELQEMQETQVDNDAYDDNEIEIIRSKEFSLKPMDSEEAVLQMNLLGHDFFVFTDRETDGTSIVYRRKDGKYGLIQTSEQ | binds | –
2 | recombinant His-tagged full-length HPF (HPFSA) (natural protein, S. aureus, UniProt Q2FIN9 1-190, looked up, hibernating promoting factor (HPF), Staphylococcus aureus, full length; also called full-length HPFSA protein; source: E. coli BL21(DE3), pET28a, purified) MIRFEIHGDNLTITDAIRNYIEEKIGKLERYFNDVPNAVAHVKVKTYSNSATKIEVTIPLKNVTLRAEERNDDLYAGIDLINNKLERQVRKYKTRINRKSRDRGDQEVFVAELQEMQETQVDNDAYDDNEIEIIRSKEFSLKPMDSEEAVLQMNLLGHDFFVFTDRETDGTSIVYRRKDGKYGLIQTSEQ | – | binds
